From the RNAGym collection of RNA variant scans (doi:10.7554/elife.90254)

B1: OR4K15 (parent)
chain: GUUAACGGUCAUAGGCCAUGGAAACUAGGAGCACCAUUUCGCUGCCAGUGAAGAAAUGAACAAAGAAAAUCUGGGCCAGGCAGGCAUCAAAAGAAAUAGUCUUGCGCUCAACCAGAAAGUCUGUAAUCAUUUUAAGGGUA

Variants of: B1
Assay: self-cleavage, relative activity (ratio to wild type); higher = more cleavage; in vitro, sequencing; the parent is a self-cleaving ribozyme

Row | Variant | self-cleavage
1 | A22G A60U | 0.77
2 | A22G A91U | 1.06
3 | A22G A91C | 1.93
4 | A22G A91G | 0.49
5 | A22U U127C | 1.13
6 | A22G U97C | 1.52
7 | A22G U97A | 0.96
8 | A22G U70A | 1.28
9 | A22U C76A | 0.16
10 | A22G G106A | 0.03
11 | A22G A52G | 0.91
12 | A23C A51U | 1.46
13 | A22G U87C | 1.28
14 | A22G U87A | 1.28
15 | A22U U37C | 0.85
16 | A22G U122C | 0.86
17 | A22G U122G | 1.67
18 | A22G U124C | 0.38
19 | A22G U124A | 1.29
20 | A22G A125U | 1.32
21 | A22U U122C | 1.37

Row | Variant | self-cleavage
22 | A22U U122A | 1.33
23 | A22G U57A | 1.15
24 | A23C A59U | 1.77
25 | A23C A59G | 0.63
26 | A22U A64G | 1.62
27 | A22G A129C | 1.08
28 | A22G C46G | 1.35
29 | A22G A69G | 1.07
30 | A22G A69U | 1.28
31 | A22U G74A | 0.1
32 | A22U G74U | 0.27
33 | A22U U132C | 1.99
34 | A22G U37C | 1.68
35 | A22G A63G | 1.72
36 | A22G A63C | 1.25
37 | A22U U57G | 1.17
38 | A22U A92U | 2.17
39 | A22U A92G | 1.41
40 | A22U G65U | 0.33
41 | A23G A24U | 1.72
42 | A22G C77U | 1.62

Row | Variant | self-cleavage
43 | A22U A62G | 1.98
44 | A22G A90U | 2.02
45 | A22G A134G | 1.02
46 | A22U A33G | 0.56
47 | A22G A33C | 0.57
48 | A22G C88U | 2.1
49 | A22U A125G | 0.52
50 | A22G A59G | 1.07
51 | A22U U139A | 1.63
52 | A22U G44A | 1.87
53 | A22G C105U | 0.25
54 | A22G C35A | 1.2
55 | A22G U108C | 0.03
56 | A22G A117U | 0.49
57 | A22G A117G | 1.68
58 | A22U A59U | 1.71
59 | A22U A59G | 1.48
60 | A22G U43C | 0.78
61 | A22G U43A | 1.31
62 | A23C U43C | 1.86
63 | A22G U132C | 1.28

Row | Variant | self-cleavage
64 | A22G U132A | 1.93
65 | A22G U133C | 0.65
66 | A22G A92U | 1.94
67 | A22G A92G | 1.08
68 | A22U A51U | 1.14
69 | A22G A68C | 0.64
70 | A22U A140G | 1.41
71 | A22U G29A | 0.84
72 | A22U A110G | 0.12
73 | A22U U70C | 0.9
74 | A22U A94U | 1.75
75 | A22G A114C | 0.03
76 | A22G A114G | 0.69
77 | A22G A47U | 0.62
78 | A22G A47G | 1.34
79 | A22U A134G | 1.35
80 | A22G G137A | 1.63
81 | A22U G83A | 0.93
82 | A23C U70A | 1.48
83 | A23C A95G | 1.67
84 | A23C U38C | 1.73
